# Experimental data from patent publication US20190184026A1.
# How the values were obtained:
# Experiment in all cases: cell-based or functional assay
# [1] = target: CD3 (on T cells of human PBMCs) (human)
# human GLP-1R (human) = human GLP-1R (human) (UniProt P43220)
# [2] = target: lactating receptors of the Nb2 cells (rat) (UniProt P05710)
# Sequence of lactating receptors of the Nb2 cells (rat) (P05710 20-610): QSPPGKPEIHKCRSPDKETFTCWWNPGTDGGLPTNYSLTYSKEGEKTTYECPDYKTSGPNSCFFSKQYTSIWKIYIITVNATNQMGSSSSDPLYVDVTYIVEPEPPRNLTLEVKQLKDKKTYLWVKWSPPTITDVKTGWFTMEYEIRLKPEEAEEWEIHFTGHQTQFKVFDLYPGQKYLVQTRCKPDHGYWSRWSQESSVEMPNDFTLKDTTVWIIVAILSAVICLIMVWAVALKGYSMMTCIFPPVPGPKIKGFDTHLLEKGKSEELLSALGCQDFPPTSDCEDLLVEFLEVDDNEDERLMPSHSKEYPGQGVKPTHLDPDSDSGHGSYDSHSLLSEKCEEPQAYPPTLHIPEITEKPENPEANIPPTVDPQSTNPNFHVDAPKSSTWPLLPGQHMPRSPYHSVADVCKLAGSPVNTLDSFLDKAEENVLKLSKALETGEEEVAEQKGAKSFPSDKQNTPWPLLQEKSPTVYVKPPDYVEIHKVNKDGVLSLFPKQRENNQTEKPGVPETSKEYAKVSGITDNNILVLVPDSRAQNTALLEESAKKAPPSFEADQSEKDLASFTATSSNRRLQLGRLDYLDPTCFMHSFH
# Sequence of human GLP-1R (human) (P43220 24-463): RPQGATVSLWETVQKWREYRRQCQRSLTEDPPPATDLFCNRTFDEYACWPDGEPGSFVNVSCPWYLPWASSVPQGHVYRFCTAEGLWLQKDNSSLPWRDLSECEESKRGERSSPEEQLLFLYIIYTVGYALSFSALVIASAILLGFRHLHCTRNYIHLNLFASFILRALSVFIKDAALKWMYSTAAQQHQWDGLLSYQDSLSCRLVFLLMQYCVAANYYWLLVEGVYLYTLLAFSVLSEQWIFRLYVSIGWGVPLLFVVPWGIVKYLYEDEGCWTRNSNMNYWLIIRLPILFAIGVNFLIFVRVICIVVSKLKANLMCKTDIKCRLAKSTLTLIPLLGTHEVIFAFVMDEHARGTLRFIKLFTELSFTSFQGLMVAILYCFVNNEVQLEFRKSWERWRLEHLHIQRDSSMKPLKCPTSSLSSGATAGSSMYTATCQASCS
substance,measurement,setting,value
anti-CD3 monoclonal antibody OKT3,"EC50 of activation of human PBMCs (CCK-8, absorbance at 492 nM)",[1],0.015 nM
"duraglutide (Eli Lilly, Cat. No. 9301897) (Fc fusion)","in vitro activity EC50 (CRE-Luc reporter, CHO-K1 cells with human GLP-1R)",human GLP-1R (human),0.0299 nM
hGH (from UniProt P01241 27-217) (ligand),"EC50 (Nb2 cell proliferation, CCK-8)",[2],0.00694 nM
